How the values were obtained:
[1] = biological target: T1, membrane-bound human IL-6R (human, UniProt P08887 20-468); test: flow cytometry on HepG2 cells, goat anti-human IgG Alexa Fluor 647
T1 construct: whole, on cells; also called mIL-6R; membrane IL-6R
T1 sequence (looked up): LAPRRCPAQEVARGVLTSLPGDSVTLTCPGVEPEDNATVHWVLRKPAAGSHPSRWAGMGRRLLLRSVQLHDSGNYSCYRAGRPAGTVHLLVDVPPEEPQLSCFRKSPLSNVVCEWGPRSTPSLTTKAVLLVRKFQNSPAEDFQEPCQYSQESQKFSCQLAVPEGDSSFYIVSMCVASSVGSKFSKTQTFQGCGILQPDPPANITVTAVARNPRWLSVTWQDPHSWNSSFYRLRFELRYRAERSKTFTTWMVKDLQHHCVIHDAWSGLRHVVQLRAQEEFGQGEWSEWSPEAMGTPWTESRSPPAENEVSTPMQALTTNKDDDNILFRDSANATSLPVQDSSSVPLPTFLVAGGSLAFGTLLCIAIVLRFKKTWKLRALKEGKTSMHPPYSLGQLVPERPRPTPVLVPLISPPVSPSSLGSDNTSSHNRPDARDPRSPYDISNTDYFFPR
Experimental: Cell surface staining is performed on HepG2 cells with different doses of mAbs. […] Each experiment was performed in triplicates.

MUTANT 4 = biological target: T2, MUTANT 4 (mouse, UniProt P22272); test: flow cytometry on PEAK cells displaying the mutated mouse IL-6R, goat anti-human IgG Alexa Fluor 647
T2 construct: also called mouse IL-6R with human residues in D3, mutant 4
T2 sequence (receptor chain, looked up): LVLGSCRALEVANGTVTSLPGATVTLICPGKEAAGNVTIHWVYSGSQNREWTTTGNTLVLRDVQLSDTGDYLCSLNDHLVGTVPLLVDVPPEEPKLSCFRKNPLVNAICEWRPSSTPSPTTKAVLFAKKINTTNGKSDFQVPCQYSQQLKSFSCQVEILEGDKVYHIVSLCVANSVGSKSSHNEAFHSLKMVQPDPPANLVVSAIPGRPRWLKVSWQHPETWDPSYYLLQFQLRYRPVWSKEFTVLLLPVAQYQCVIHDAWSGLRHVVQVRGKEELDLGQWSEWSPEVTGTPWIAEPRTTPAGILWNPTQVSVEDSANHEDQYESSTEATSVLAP
Text: An overlap extension PCR strategy was used to generate coding sequences specifying huIL-6R/mouseIL-6R chimeric proteins (FIG. 6A) and mouse IL-6R proteins containing human amino acid substitutions in D3 domains (FIG. 6B). Partially overlapping mutagenic oligonucleotide primers were used for PCR amplification of N- and C-terminal sequences on either side of huIL-6R/mouse IL-6R junctions or substituted regions, followed by gel isolation and annealing of the denatured PCR products. Full length PCR products were then digested by EcoRI and BglII and ligated into a pDISPLAY™ vector (Invitrogen). PEAK cells were grown in DMEM medium supplemented with 10% fetal calf serum and 4 mM L-glutamine. Cells were plated 12 to 24 h before transfection to have 40-50% confluency in 6 well plates. Transfections of pDISPLAY™ vectors (Invitrogen) were carried out by lipofection using TransIT® LT1 reagent (MirusBio) according manufacturer's specifications. Cells were grown for 48 h before harvesting and analysis by flow cytometry.
Cell surface staining was performed on PEAK cells displaying each variant of IL-6R and analyzed by flow cytometry (FIG. 6B-D). Cell surface expression of each chimeric IL-6R was assessed using an anti-human-CD126 PE or an anti-mouse CD126-PE antibody (BD Pharmingen).

[2] = biological target: T3, soluble cynomolgus monkey IL-6R (cynomolgus monkey, UniProt A0A2K5WN54 60-396); test: SPR (Biacore 2000), mAb captured on anti-human IgG Fc, analyte in solution, 25 C, 1:1 Langmuir
T3 construct: extracellular domain; also called scyIL-6R; soluble cynomolgus monkey IL-6 Receptor; not shown: C-terminal His- or Avi-Tag
T3 sequence: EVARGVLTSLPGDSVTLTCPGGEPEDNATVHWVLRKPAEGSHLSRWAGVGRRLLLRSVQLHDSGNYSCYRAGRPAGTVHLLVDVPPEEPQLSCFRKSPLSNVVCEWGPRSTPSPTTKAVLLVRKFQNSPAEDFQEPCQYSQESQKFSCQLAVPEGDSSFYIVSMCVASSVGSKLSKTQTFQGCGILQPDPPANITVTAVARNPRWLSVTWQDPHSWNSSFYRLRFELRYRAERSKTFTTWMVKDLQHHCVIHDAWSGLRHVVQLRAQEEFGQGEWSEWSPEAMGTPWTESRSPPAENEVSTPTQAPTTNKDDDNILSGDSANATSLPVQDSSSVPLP
Experimental: (§1) A CM5 Biacore chip was used and 1640 RU (response units) of an anti-human IgG Fc (Biacore AB, Uppsala, Sweden) was immobilized by EDC/NHS chemistry. […] The surface was regenerated after each cycle by injection of 3M magnesium chloride at 20 μL/min, for 30 s followed by lmin of stabilization time in HBS-EP buffer (Biacore AB, Uppsala, Sweden). Binding was measured by passing analytes carrier-free soluble human IL-6R (shuIL6-R; R&D), soluble human IL-6Rc (shuIL-6Rc) and soluble cynomolgus monkey IL-6R (scyIL-6R) in duplicates at the following concentrations: 100 nM, 50 nM, 25 nM, 12.5 nM, 6.25 nM and 0nM. All solutions were diluted in HBS-EP buffer. Injection was performed at 50 μl/min for 3 min followed by 12 min of dissociation time and the temperature was set at 25° C.

[3] = biological target: T4, carrier-free soluble human IL-6R (R&D) (human, UniProt P08887 20-365); test: as above
T4 construct: extracellular domain; also called shuIL-6R; shuIL6-R
T4 sequence (looked up): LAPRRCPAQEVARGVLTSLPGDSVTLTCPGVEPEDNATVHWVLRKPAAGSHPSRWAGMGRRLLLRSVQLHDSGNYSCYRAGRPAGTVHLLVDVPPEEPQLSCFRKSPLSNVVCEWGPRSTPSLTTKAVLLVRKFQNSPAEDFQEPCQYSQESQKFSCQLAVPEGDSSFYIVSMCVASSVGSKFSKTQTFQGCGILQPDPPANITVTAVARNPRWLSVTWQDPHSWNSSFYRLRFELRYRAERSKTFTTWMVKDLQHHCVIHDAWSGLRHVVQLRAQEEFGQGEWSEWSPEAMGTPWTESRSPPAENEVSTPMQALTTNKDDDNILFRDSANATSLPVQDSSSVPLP
Experimental: as §1

B1: NI-1201 wild type (NI-1201-WT) antibody (antibody, V domains shown)
VH: QVQLVQSGAEVKKPGSSVKVSCKASGGTFSSYAISWVRQAPGQGLEWMGGIIPLFDTTKYAQQFQGRVTITADESTSTAYMELSSLRSEDTAVFYCARDRDILTDYYPMGGMDVWGQGTTVTVSS
VL: AIQLTQSPSSLSASVGDRVTITCRASQGISSVLAWYQQKPGKAPKLLIYDASSLESGVPSRFSGSGSGTDFTLTISSLQPEDFATYYCQQSNSYPLTFGGGTKVEIKR
notes: Fully human monoclonal IgG (captured by anti-human IgG Fc in Biacore); also called 39B9 VL1
EC50 (read off the curve) [1]: ~0.2 µg/mL | binding result (MUTANT 4): no binding | Kd [2]: 2.04 nM | koff [2]: 0.000215 s⁻¹ | kon [2]: 106000 M⁻¹ s⁻¹ | Kd [3]: 0.0567 nM | koff [3]: 7.53e-05 s⁻¹ | kon [3]: 1.33e+06 M⁻¹ s⁻¹

From patent US20160130351A1 (NOVIMMUNE S A, published 2016)
